Test results: US11155577B2, “Thiol-ene based peptide stapling and uses thereof” (University of Utah Research Foundation, priority 2015, dated 2021)
Bridge positions count the residues as written; N and C are the ends. Square brackets hold non-standard residues; d marks the D form. S5 = C=CCCC[C@](C)(N)C(=O)O; Ae = not defined here

Experiments:
[1] = Circular dichroism (CD) evaluation of alpha helicity; format: physicochemical; settings: in water, 25° C., 100 μM peptide
Experimental: All CD spectra were recorded on an AVIV Model 410 spectrophotometer (AVIV) in water in a 1 mm QS quartz cuvette (Stama) at 25° C. Wavelength scans were performed at 1-nm resolution with 1-s averaging time. Data from double scans were averaged, blank subtracted, and normalized to mean residue ellipticity by the following equation; [θ]=100×θ/C×l×(n−1), where C is concentration of protein in mM, l is path length in centimeters, and n is the number of residues in the protein. The concentrations of the protein samples used for CD experiments were 100 μM. The percentage helicity was calculated from the […] at 222 nm using helical models as previously reported (Y. H. Chen, J. T. Yang, K. H. Chau. Biochemistry 1974, 13, 3350-3359).

[2] = test system: p53 wild-type HCT-116 colorectal carcinoma cells; test: Cell-viability assay (CellTiter Glo), HCT-116 p53 wild-type; format: cell-based; settings: 24-hour incubation
Experimental: (§1) Both HCT-116 cell lines, i.e., HCT-116 p53 wild-type and HCT-116 p53 null, were obtained from Dr. Trudy Oliver (University of Utah). Cell lines were cultured in 10% FBS media (DMEM, Pen/Strep). Briefly. 20,000 cells/well in 1% FBS media were seeded in 96-well plates. After 24 hours, stapled peptides with various concentrations were added to each well. After another 24-hour incubation, media were aspirated and CellTiter Glo reagent was added according to the protocol from Promega. Luminescence signal was measured by automatic plate reader (BioTek Synergy Neo).

[3] = test system: p53-null HCT-116 colorectal carcinoma cells; settings: F. Bernal et al., Cancer Cell 2010; cited from earlier work
[4] = test system: p53 wild-type HCT-116 colorectal carcinoma cells; settings: F. Bernal et al., Cancer Cell 2010; cited from earlier work
[5] = test system: p53-null HCT-116 colorectal carcinoma cells; test: Cell-viability assay (CellTiter Glo), HCT-116 p53 null; format: cell-based; settings: 24-hour incubation
Experimental: as §1

p53-MDM2 interaction = target: T1, p53-MDM2 interaction (Homo sapiens, UniProt Q00987); test: ELISA assay for p53-MDM2 interactions; format: binding; settings: 1-hour incubation with p53-MDM2 protein complexes
T1 construct: purchased Enzo Life Sciences
Experimental: The ELISA kit was purchased from Enzo Life Sciences (New York, USA). TMB substrate was purchased from Cell Signaling Technology (Massachusetts. USA). The assay was performed according to the manufacture's protocol. Briefly, p53 antibody was coated on a 96-well plate overnight. After the coating, peptides and p53-MDM2 protein complexes were diluted in assay buffer and added to the wells. After 1-hour incubation, all wells were washed and detection antibody was added. After another 1-hour incubation, SA-HRP was added and incubated for 30 minutes before TMB substrate was added. 1N HCl was then added to stop the color development and the signal was measure using automatic plate reader (BioTek Synergy Neo).

T1 sequence (Q00987 whole entry): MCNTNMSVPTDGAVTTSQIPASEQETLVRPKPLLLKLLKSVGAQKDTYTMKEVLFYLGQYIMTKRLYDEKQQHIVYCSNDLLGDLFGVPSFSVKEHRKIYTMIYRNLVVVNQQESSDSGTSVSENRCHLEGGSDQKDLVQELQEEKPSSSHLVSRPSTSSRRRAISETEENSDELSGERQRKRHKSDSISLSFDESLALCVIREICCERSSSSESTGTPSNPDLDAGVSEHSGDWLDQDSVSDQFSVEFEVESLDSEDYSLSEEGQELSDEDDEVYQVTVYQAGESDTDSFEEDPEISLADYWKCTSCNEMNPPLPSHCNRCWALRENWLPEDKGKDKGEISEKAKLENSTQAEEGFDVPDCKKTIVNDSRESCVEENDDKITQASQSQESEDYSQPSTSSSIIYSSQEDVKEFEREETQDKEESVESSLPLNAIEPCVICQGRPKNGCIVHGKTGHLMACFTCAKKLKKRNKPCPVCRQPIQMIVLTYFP

Ac-Gln-Ser-Gln-Gln-Thr-Phe-R8-Asn-Leu-Trp-Arg-Leu-Leu-S5-Gln-Asn-NH2 [Peptide 12]
alpha helicity (CD spectra) [1]: significant increase of alpha helicity compared to the unstapled peptide 13 | induction of apoptosis / cell viability in p53 wild-type cells [2]: induction of apoptosis in p53 wild-type cells | induction of cell apoptosis in p53 null cells (previously reported) [3]: not p53 null cells | induction of cell apoptosis in p53 wild-type cells (previously reported) [4]: selectively induces cell apoptosis in p53 wild-type cells | induction of apoptosis / cell viability in p53 null cells [5]: not p53 null cells

Ac-Glu-Asn-Pro-GLu-S5-Ile-Leu-Asp-S5-His-Val-Gln-Arg-Val-Met-NH2 (Ac-ENPE[S5]ILD[S5]HVQRVM-NH2; staple 5-9; SMILES CC[C@H](C)[C@@H]1NC(=O)[C@@](C)(NC(=O)[C@H](CCC(=O)O)NC(=O)[C@@H]2CCCN2C(=O)[C@H](CC(N)=O)NC(=O)[C@H](CCC(=O)O)NC(C)=O)CCCC=CCCC[C@@](C)(C(=O)N[C@@H](Cc2c[nH]cn2)C(=O)N[C@H](C(=O)N[C@@H](CCC(N)=O)C(=O)N[C@@H](CCCNC(=N)N)C(=O)N[C@H](C(=O)N[C@@H](CCSC)C(N)=O)C(C)C)C(C)C)NC(=O)[C@H](CC(=O)O)NC(=O)[C@H](CC(C)C)NC1=O) [Peptide 9]
alpha helicity (CD spectra) [1]: strong alpha-helical characteristics

Ac-Glu-Asn-Pro-Glu-Cys-Ile-Leu-Asp-Cys-His-Val-Gln-Arg-Val-Met-NH2 (Ac-ENPECILDCHVQRVM-NH2; cysteine pairing not given here) [Peptide 10, unstapled axin homologue with 2 Cys residues]
alpha helicity (CD spectra) [1]: low alpha-helical property

Ae-Gln-Ser-Gln-Gln-Thr-Phe-Cys-Asn-Leu-Trp-Arg-Leu-Leu-Cys-Gln-Asn-NH2 (Ae-QSQQTFCNLWRLLCQN-NH2; not fully specified; printed as Ae-Gln-Ser-Gln-Gln-Thr-Phe-Cys-Asn-Leu-Trp-Arg-Leu-Leu-Cys-Gln-Asn-NH2; cysteine pairing not given here; reading uncertain) [Peptide 13, unstapled p53 homologue with 2 Cys residues]
blocking of the p53-MDM2 interaction (p53-MDM2 interaction): did not block the p53-MDM2 interaction
